For this assay, the target named is E. coli RNAP core enzyme (E. coli, UniProt P0A7Z4;P0A8V2;P0A8T7;P0A800). Briefly: fluorescence polarisation. In general terms: Polarisation of emitted light reports the rotation of a fluorescent probe.
Chain of E. coli RNAP core enzyme (P0A7Z4 whole entry, chain 1 of 4): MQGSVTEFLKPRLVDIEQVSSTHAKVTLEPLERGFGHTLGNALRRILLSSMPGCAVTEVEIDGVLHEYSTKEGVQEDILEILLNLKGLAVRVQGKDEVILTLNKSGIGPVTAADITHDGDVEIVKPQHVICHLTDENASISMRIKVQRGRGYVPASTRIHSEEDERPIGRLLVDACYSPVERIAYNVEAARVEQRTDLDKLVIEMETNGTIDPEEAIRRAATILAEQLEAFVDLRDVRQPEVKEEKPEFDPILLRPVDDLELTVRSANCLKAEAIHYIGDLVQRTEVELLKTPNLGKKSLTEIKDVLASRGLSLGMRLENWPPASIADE
Chain of E. coli RNAP core enzyme (P0A8V2 whole entry, chain 2 of 4): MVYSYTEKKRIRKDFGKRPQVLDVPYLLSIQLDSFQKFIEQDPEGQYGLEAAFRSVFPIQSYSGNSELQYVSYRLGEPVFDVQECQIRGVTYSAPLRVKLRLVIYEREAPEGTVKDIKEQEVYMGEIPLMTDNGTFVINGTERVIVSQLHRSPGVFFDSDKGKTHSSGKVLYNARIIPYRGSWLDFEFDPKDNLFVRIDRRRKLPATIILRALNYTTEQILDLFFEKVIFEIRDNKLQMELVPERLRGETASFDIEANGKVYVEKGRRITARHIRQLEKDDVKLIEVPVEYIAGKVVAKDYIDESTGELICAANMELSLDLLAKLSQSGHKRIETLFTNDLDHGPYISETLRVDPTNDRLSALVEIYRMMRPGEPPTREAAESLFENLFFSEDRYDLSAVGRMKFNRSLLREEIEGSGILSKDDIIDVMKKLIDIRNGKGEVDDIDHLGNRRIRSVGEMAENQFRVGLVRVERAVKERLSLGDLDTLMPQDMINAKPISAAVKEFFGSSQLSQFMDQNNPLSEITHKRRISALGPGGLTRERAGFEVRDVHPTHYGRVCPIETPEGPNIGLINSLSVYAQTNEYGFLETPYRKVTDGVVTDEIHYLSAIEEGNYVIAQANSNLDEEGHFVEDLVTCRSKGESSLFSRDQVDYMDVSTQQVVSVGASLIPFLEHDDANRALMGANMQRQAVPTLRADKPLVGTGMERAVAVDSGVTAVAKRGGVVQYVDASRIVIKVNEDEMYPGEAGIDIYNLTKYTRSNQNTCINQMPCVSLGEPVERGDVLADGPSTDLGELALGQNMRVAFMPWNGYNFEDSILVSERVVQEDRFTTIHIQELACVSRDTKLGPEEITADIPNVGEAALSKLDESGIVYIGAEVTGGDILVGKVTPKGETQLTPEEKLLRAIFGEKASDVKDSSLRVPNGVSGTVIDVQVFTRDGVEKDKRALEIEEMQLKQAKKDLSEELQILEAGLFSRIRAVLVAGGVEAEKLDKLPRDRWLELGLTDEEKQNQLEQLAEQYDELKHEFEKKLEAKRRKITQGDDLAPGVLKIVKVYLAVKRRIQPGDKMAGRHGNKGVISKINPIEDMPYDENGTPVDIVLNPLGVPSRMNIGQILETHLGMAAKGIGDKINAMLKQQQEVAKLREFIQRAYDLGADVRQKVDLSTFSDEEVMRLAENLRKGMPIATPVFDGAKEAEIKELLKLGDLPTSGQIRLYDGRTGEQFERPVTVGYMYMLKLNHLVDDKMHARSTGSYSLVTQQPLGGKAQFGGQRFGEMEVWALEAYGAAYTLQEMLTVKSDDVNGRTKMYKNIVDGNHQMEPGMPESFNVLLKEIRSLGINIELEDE
Chain of E. coli RNAP core enzyme (P0A8T7 whole entry, chain 3 of 4): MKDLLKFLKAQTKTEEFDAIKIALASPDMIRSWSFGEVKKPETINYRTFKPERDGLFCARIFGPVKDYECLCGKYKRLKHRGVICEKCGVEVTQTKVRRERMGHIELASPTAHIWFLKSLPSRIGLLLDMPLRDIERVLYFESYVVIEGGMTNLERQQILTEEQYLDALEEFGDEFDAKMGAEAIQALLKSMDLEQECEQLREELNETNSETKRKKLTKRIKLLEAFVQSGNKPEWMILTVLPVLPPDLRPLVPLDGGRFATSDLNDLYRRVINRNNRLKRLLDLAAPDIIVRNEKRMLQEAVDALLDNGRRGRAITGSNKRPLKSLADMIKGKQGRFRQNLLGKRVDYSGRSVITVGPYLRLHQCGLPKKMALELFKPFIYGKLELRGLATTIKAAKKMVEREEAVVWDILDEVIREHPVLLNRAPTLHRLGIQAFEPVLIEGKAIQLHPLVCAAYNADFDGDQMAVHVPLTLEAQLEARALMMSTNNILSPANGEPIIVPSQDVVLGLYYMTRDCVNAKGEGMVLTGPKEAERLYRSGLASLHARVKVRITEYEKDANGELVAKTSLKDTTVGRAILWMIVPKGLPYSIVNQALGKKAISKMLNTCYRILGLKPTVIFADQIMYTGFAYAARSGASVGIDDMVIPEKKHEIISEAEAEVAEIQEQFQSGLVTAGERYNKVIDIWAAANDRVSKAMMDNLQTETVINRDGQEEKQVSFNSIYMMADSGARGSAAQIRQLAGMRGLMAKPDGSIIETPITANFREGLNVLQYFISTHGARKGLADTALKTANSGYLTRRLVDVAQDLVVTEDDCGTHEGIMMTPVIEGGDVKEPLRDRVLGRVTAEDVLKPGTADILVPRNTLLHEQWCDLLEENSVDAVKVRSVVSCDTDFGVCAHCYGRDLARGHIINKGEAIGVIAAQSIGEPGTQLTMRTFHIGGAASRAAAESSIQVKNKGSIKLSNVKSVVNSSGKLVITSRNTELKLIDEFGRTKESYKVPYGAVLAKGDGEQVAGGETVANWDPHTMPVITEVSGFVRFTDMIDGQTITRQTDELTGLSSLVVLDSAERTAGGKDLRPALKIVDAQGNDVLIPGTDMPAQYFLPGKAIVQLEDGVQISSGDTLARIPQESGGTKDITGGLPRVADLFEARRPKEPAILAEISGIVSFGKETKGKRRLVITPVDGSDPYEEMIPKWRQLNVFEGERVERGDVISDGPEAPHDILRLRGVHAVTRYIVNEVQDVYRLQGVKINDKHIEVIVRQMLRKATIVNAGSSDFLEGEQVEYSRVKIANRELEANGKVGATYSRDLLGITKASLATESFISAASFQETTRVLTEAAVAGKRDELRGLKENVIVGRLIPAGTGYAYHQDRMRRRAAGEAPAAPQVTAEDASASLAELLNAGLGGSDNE
Chain of E. coli RNAP core enzyme (P0A800 whole entry, chain 4 of 4): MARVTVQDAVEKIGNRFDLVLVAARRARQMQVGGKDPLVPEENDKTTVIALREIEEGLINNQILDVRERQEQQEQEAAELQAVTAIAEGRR

B1: fluorescein-labeled E. coli σ^E (natural protein)
chain: MSEQLTDQVLVERVQKGDQKAFNLLVVRYQHKVASLVSRYVPSGDVPDVVQEAFIKAYRALDSFRGDSAFYTWLYRIAVNTAKNYLVAQGRRPPSSDVDAIEAENFESGGALKEISNPENLMLSEELRQIVFRTIESLPEDLRMAITLRELDGLSYEEIAAIMDCPVGTVRSRIFRAREAIDNKVQPLIRR
modifications: fluorescein at residue C165
In the case of B1, the Kd (commonly a measure of binding affinity in units of concentration) was approximately 53 nM.

The values above are taken from article PMC6648896 (Nucleic Acids Research, 2019).
